Results as given in patent publication US20150018409A1, “CHIMERIC POLYPEPTIDES AND THEIR USE” (ADRIACELL S.P.A., priority 2003, published 2015).

Key:
[1] = system: MRC-5 cells (ATM positive); conditions: SCPVUTAT 100 nM or HU 1 mM
Protocol: [sequence] dependent Ser^15 phosphorylation of p53. The ATM positive cell-line MRC5 was treated with [sequence] (100 nM, SC) or with hydroxyurea (1 mM, HU) for the time periods as indicated; as a control non treated cells were used (O).
P53 phosphorylation on Ser15 in response to [sequence] treatment was assayed in ATM positive or negative cell lines (MRC-5 and AT-5 respectively). For comparison parallel experiments were done with hydroxyurea (HU). […] For this immunoblotting experiments were done with extracts after treatment, by using specific antibodies to a phosphorylated Ser15 in p53 for specific detection.

[2] = system: MO59J (DNA-PKcs−/−) glioblastoma cells compared to MO59K; assay: Colony forming assay with automatic analysis (VersaDoc); assay type: cell-based, human; parameters: dose or concentration left out as unconfirmed; conditions: single treatment for 12 hours
Text: Statistical analysis of the results was done and is represented as a histogram. […] An example of the colony forming assay is shown. The assay was done employing various concentrations of cells in the order of three magnitudes (from the upper to the lower rows, 1×10^4, 2×10^3, 4×10^2, 8×10). On the right B), the histograms of the results from the colony forming assay of the cell-lines MO59J compared to MO59K is shown. The assays were done as in FIG. 9 but analysed with the aid of the Versadoc 4 (BioRad) system. […]

[3] = system: neuroblasoma cell lines (IMR32, LAN5, GI-LIN) and primary neuroblastoma cell isolates; conditions: upon treatment with SCPVUTAT
Protocol: For the analysis the DNA content was assayed with FACS after staining of the cells with propidium J^−.

HCT116 (p53(+/+)) cells = assay: Cell cycle arrest point: nuclear morphology and immunofluorescence of cyclin B1 and Cdc25C; assay type: cell-based, human
Protocol: Microscopic analysis of the HCT116 (p53(+/+)) cells not treated, or treated with […] (100 nM) for 30 hours, or with taxol (0.2 μg/ml). Immunofluorescence analysis was done with primary antibodies specific for cyclin B1 or specific for Cdc25C and coloured with secondary conjugates of FITC (green, cyclinB1) or TRITC (red, Cdc25C).
Moreover, the initiation of mitosis, i.e. induced with the microtuble blocking agents Nocodazol or Taxol, can be detected by the nuclear activity of the Cdc2 kinase and also by nuclear localisation of Cdc25C. These assays allow to dissect the exact point of cell cycle arrest after […] treatment and this further allows to detect disturbations in this phase of the cell cycle relative to a positive control. Similar experiments are well known in the art also for other phases of the cell cycle. The assay shown in FIG. 7A and the immunofluorescence analysis shown in FIG. 14 show examples for these types of experiments.
HCT116 (p53(+/+)) not treated, or treated for 30 hours with […] (100 nM), or with Taxol (0.2 μg/ml) were fixated with 3% PFA and treated with specific antibodies to cyclin B1 or for Cdc25C. The immunofluorescence was analysed with the microscope (see FIG. 14) with specific primary antibodies to cyclin B1 conjugated to FITC labelled secondary antibodies (green) or with specific primary antibodies to Cdc25C conjugated to TRITC labelled secondary antibodies (red).

[4] = system: AT-5 cells (mutated for ATM); assay: FACS analysis of DNA content / cell cycle distribution; assay type: cell-based; conditions: incubation for 36 hours (25 nM, 100 nM)
Protocol: FIG. 8. Induction of Cell Cycle Block and Clonogenic Activity by […] of Cells Mutated for ATM (AT-5) in Comparison to Non Mutated Cells (MRC-5). • A) Distribution of DNA content distribution during the cell cycle detected by FACS analysis of AT-5 cells after 36 hours of […] treatment (25 nM, 100 nM), or with adriamycin (0.02 μg/ml; ADRIAMYCIN), or with SC34 (100 nM), and as control from non treated cells. The histograms represent DNA content relative to the cell-numbers; the panel on the right indicates the percentage of the corresponding distributions of the various cell cycle phases as calculated with the MODFIT™ program-package. • B) Colony forming assay with cell lines mutated for ATM and induced for DNA damage by […].
The cell cycle response to DSB's induced by […] treatment were analysed in p53 positive or negative cells. […] Incubation for 36 hours of the cell lines mutated for ATM (AT-5) with […] results in a transient retardation of the cell cycle, as was determined by a DNA content FACS analysis. […] A single addition of […] for 60 minutes to the AT-5 cells was sufficient to induce cell cycle stop after 24 hours (FIG. 8A) and finally leads to cell death, obtained from not correctly ligated DNA, and consequently, the clonogenic activity after a single treatment with […] for 60 minutes was below 0.02% for AT-5 cells. […]

B1: SCPVUTAT: single chain PvuII endonuclease (aa 1-157, GSGG linker, aa 2-157) fused to HIV Tat peptide and six histidine tag; SEQ ID NO:2 (protein, listed as Proteus vulgaris)
chain: MSHPDLNKLLELWPHIQEYQDLALKHGINDIFQDNGGKLLQVLLITGLTVLPGREGNDAVDNAGQEYELKSINIDLTKGFSTHHHMNPVIIAKYRQVPWIFAIYRGIAIEAIYRLEPKDLEFYYDKWERKWYSDGHKDINNPKIPVKYVMEHGTKIYGSGGSHPDLNKLLELWPHIQEYQDLALKHGINDIFQDNGGKLLQVLLITGLTVLPGREGNDAVDNAGQEYELKSINIDLTKGFSTHHHMNPVIIAKYRQVPWIFAIYRGIAIEAIYRLEPKDLEFYYDKWERKWYSDGHKDINNPKIPVKYVMEHGTKIYGSYGRKKRRQRRRGGSHHHHHH
B1 was tested, and the p53-Ser15 phosphorylation [1] was “specific phosphorylation of p53-Ser^15 is obtained”, the “sensitivity in colony forming assay versus parental MO59K” value [2] was “significant differential increase in sensibility” and the induction of apoptosis [3] was “significant amount of apoptosis was induced”. The “cell cycle stop from localisation of Cdc25C and cyclin B” value (HCT116 (p53(+/+)) cells; 30 hours, SCPVUTAT 100 nM or Taxol 0.2 μg/ml) was “G2 phase stop”, the cell cycle block (HCT116 (p53(+/+)) cells; upon treatment with SCPVUTAT (100 nM)) was “reversible block in the phase of the cell cycle that corresponds to late S/G2” and the “change of cell cycle distribution (DNA content)” value [4] was “strong increase in 4N G2 DNA content”.
